In US20100297160A1 (MEDICAL COLLEGE OF GEORGIA RESEARCH INSTITUTE, published 2010):

Molecular target: human amyloid beta 42 (Aβ42) (human)
Experiment: co-incubation of equimolar peptides for one month at 37 C, dialysis, 10 kDa filter concentration, SDS gel
Protocol: Various means were studied to enhance the immune potential of amyloid peptides. One such approach was derived from experiments with samples of human plasma and brain tissues having a complex of peptides that expressed epitopes for both human Aβ peptide and human RAGE. This involved the incubation of equimolar amounts of Aβ and an immunogenic fragment of RAGE for one month in sterile water at 37° C.
After incubation, the solution was dialyzed to remove unused products. The dialyzed solution was then concentrated in a centrifugation filter with a 10,000 molecular weight cutoff. […] The concentrated complex was dissolved in water and administered orally to rats on three occasions with two weeks between administrations. Two weeks after the last administration plasma samples were obtained for the determination of Aβ or RAGE titers.

Sequence of human amyloid beta 42 (Aβ42) (human) (peptide, as listed by the source): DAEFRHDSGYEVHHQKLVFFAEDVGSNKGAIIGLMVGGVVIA

binding result: binds
Binder: AQNITARIGEPLVLKCKGAPKKPPQRLEWKLN (also called RAGE fragment) [immunogenic fragment of RAGE, amino acids 23 to 54 of human RAGE (RAGE23-54)]
